assay: soluble on expression in E. coli; label from the status in PepcDB or PDB records

| Sequence | soluble on expression in E. coli |
| --- | --- |
| MAHHHHHHMECYDNTKQKDLQEEHDVVRNFRRYYFQEKEEMHIAAIKSISDVLKNSISETNFELFINMNEAKCKLNNFINNNQTQQDIISVPHSKRMTIYPIISSCDIYHHFVVKKYTHNENNFHVLKNVIENNADEFSASLQKSLETIGSSSNIMFLNKHTTILTHSNSDCVKSLIMDVVKNQNKQVSIYFTCTSQVNLNYEEKEKKFDENFLEELNKENINITKIDLTQVKDIINKIDFVLIGSEIVTDNGGIINKKGIKLISELCLLYKKPFYVTCQAYKFLKIDKNKCSKDFYTFCTQTVTNNFNNIYEFVSPDFITLFYTDIGIFPPSNISYELSKLYINDAFYF | soluble |
| MNAAIHPRPAAERAPSYYAATLNEETDYPTLLGAVTVDIAIIGGGFTGVATAVELAERGYKVALVETHRIGWGASGRNGGQVTGSLSGDAAMHKQMRQWLGAEVEDFIWHLRWRGHEIIRQRVEKYGIACDLRHGHLHAAMKASHMGELQASYEEAVRRGMGDQVVLLDKAGVQAHLETELYCGALKNTRNMHLHPLNLCIGEARAAAGLGALIFEHSEVLDIVHGPRPAVITREGRIEAQQILLAGDVYHKLERRQLKGMIFPAMGGIVTTRPLGELAREINPQGLAVYDCRFVLDYYRPTADGRLLFGGGANYSGRDSRDITAELRPCIERTFPRLKGVEIEFQWSCAMGIVMNRIPQLGKLSDNVWYCQGYSGHGVATSHIMGEIMAKAMSGSLEQFDTFARCKHLRVPLGDLFGNPMLAAGMWYYQLMEKLRLEHHHHHH | not soluble |
| MAEILRAENIKKVIRGYEILKGISLSVKKGEFVSIIGASGSGKSTLLYILGLLDAPTEGKVFLEGKEVDYTNEKELSLLRNRKLGFVFQFHYLIPELTALENVIVPMLKMGKPKKEAKERGEYLLSELGLGDKLSRKPYELSGGEQQRVAIARALANEPILLFADEPTGNLDSANTKRVMDIFLKINEGGTSIVMVTHERELAELTHRTLEMKDGKVVGEITRV | soluble |
| GAMAPHFKEELRNLNVRYQSNATLVCKVTGHPKPIVKWYRQGKEIIADGLKYRIQEFKGGYHQLIIASVTDDDATVYQVRATNQGGSVSGTASLEVEVPAKIHLPKTLEGMGAVHALRGEVVSIKIPFSGKPDPVITWQKGQDLIDNNGHYQVIVTRSFTSLVFPNGVERKDAGFYVVCAKNRFGIDQKTVELDVADVPDPPRGVKVSDVSRDSVNLTWTEPASDGGSKITNYIVEKCATTAERWLRVGQARETRYTVINLFGKTSYQFRVIAENKFGLSKPSEPSEPTITKEDKTRAMNYDEEV | soluble |
| HWVTPDGQPGPSGEGGFTAESGRYHLFVSLACPWAHRTLIFRHLKDLQAHIGITIVDPRMLEHGWAFSEISRDNPVQDIRYLHQLYTRAKPDYTGRVTVPVLWDKQRDTIVSNESADIIRMFNSAFDSLTGNDLDFYPEALRNEIGTINEVVYRDFNN | not soluble |
| MSLEKAPHLTILVSIDGFRADYLDRGDTPVMKALAENGARAAMRPSFPSVTFPNHYTLITGKRPDRNGIVANTMVDPSVSAEKFTMRSLDPAWWSQAKPFWVSVEQQGKRAAAMFWPGSEVEIDGVRPSRWVKFDQTMPGDARVDQVLNWLDSADGPPIAFSTLYFDIVDTQGHHYGPESPEVRAAAASVDAALGRLVAGLKARGRFESTDIVIVADHGMAPLPAANRVVLDDLVDVSKIRLVTTGAVTAFSPMPGERKAVEAAFLSKPLPHMTCWKKNRIPARFHYGRNSRVPAIVCLSETGWYTTTEAAKQKPSEWDGKDGGAHGFDPYDPTMQAVFVAHGPSFKSGVALPAFDNVDVYALLAKVTGVRPEKTDGSLKVVREEGHHHHHH | not soluble |
| SNIEALADKVRTYLEAGQIDGFVRTLRARPEAGGKVPVFVFHPAGGSTVVYEPLLGRLPADTPMYGFERVEGSIEERAQQYVPKLIEMQGDGPYVLVGWSLGGVLAYACAIGLRRLGKDVRFVGLIDAVRAGEEIPQTKEEIRKRWDRYAAFAEKTFNVTIPAIPYEQLEELDDEGQVRFVLDAVSQSGVQIPAGIIEHQRTSYLDNRAIDTAQIQPYDGHVTLYMADRYHDDAIMFEPRYAVRQPDGGWGEYVSDLEVVPIGGEHIQAIDEPIIAKVGEHMSRA | soluble |
| MSELGAKYQQLQNELEEFIVARQKLETQLQENKIVNEEFDQLEEDTPVYKLTGNVLLPVEQSEARTNVDKRLEFIETEITRCEKNIRDKQEELEKMRSELIKLNNTAASTGPGR | soluble |
| MSGATPVFTEINQIQGTGDKSPLISSGFISDDEYFVQGVVTARGESLLKGFYLQGLNDDFDPNSSEGIFVSTGSAPSLEIQPGALVCVKAKVQEYYGQTQLKPDTNNFLVQGHQAPVSVTELTINENETLAQALERHEGMQVKLTSHSDLRITRNFSFDYASKRNNMVLSHGEPLFKPTQLFAAESPEAIQLAEENAKRQITIESDNKAPNGEVPYFPDFATDSNQDGSADSYLRLGARIEGLEGVIAYSYGQYRLVTTNTISQENIITQAFDEDGLEHHHHHH | soluble |
| MAVIVKYVVERNGEEKMTFTSKAEADAYDKMLDMADELFELLGKSALIEDEAKQEELAMFLAQNKEDVLCALGAKRKPAPATGKKPKAVADSDDDESVDDAA | not soluble |
| MFMREIELRGHIIDSLILPKVFDKILDMGGDYKVLEFEIGKRKTDPSYAKILVIGRDERHVDEILNELRDLGAEIPEIEEVELQPAEKDMVLPEGFYSTTNHKTFIRFKGKWIEVENQKMDGAIVVYPDEMRAEVKTIRNIKKGDLVVVGHKGVRVIPPEKPREGGGLFEFMKSDASSEKPKETIIRRIAKEMYEIREKYRKTGKGGIVVVGGPAIIHTGAGWALAKLIRMGYVQALFAGNALATHDIESVLYGTSLGVDLKTGKSVPGGHSHHLRAINTIMRAGSIKDAVEQGILKEGVMYECIKNNIPYVLAGSIRDDGPLPDVITDVVKAQEKMRELLKGKDMVLMLSTMLHSIATGNLLPSWVKTICVDINPAVVTKLMDRGTSQALGIVTDVGVFLPMLVEELEKLEKEKEKSEKREELEHHHHHH | soluble |
| MGSDKIHHHHHHMSDIVIKAENLGKKYIIGHQAENGRYQALRDVLMHNAQTLWNKTKDLAKGNPLIHGDTLEEVWALKDVSFEIRRGEAVGIIGRNGAGKSTLLKILSRITDPSAGRVTIDGRVASLLEVGTGFHPELSGRENIYLNGTILGMSRKEINQKFDEIVDFAGIEKYLDTPVKRYSSGMYVRLAFAVAAHLEPEILVVDEVLAVGDAEFQKKCLGKMGDVTKEGRTVLFVSHNMVALSALCFRSINLDSGKIIYNGHVDTGVLIYMNGLSNIDNPISYKTRSATGTGEMKIINSFLLRNGKPTLSNVACGDKVDICIEFECCTEKPRFHFALDIYNSKGNRIAYCNSLYTMGVSWVQLPKIFLAKCSFPKLPFFPDEYRVDISIHCNDERADYLQGALSLKVYEGDFYGSGKIPPISGASPIMLLEHKWTIDN | not soluble |
| MGSDKIHHHHHHMEPIMRNPEDALLDSWHQNAQAWIDAVRHGAIESRRQVTDQAILLAILGRQPERVLDLGCGEGWLLRALADRGIEAVGVDGDRTLVDAARAAGAGEVHLASYAQLAEAKVPVGKDYDLICANFALLHQDIIELLSAMRTLLVPGGALVIQTLHPWSVADGDYQDGWREESFAGFAGDWQPMPWYFRTLASWLNALDMAGLRLVSLQEPQHPQSAVPQSLLMVAERH | not soluble |
| LSNTRVQSRTAKVGYQAGVAINLKTSDYFSIRPEVLYNIMGGDTQYGDDEGNTKVLKNRYDYLSIPLNFVATFEAGPGKINVFVAPQFSLGLGGKYTSNTDSSAVGFFGVRRREDRSGTLQTSDVPDNYTGTNKYFNQINWGINYGVGYQVKGLLFTGQYHMGLSNNEPHYSNPDQEAHRGNVVTKNYGFTVGLTYFFGDTK | not soluble |
| MGSDKIHHHHHHMAGWRTVVVNTHSKLSYKNNHLIFKDSYQTEMIHLSEIDILIMETTDIVLSTMLIKRLVDENILVIFCDDKRLPTAMLMPYYARHDSSLQLSRQMSWIEDVKADVWTSIIAQKILNQSFYLGECSFFEKSQSIMNLYHDLEPFDPSNREGHAARIYFNTLFGNDFSREQDNPINAGLDYGYSLLLSMFAREVVKCGCMTQFGLKHANQFNQFNLASDIMEPFRPIVDRIIYENRQSDFVKMKRELFSMFSETYSYNGKEMYLSNIVSDYTKKVIKSLNSDGNGIPEFRI | not soluble |
| MKSLIDHFDIASAKVQSLVQETLHHADDGELYLEYTESETLLFDNRQLKNGSFHQDMGFGLRVVAGEATGYAHSSELSAAALKRASEAAKTVTYKNHAGPYSVAPQQTNKKLYQPHNPLNAPSFEEKSALLQKIDDYLRAKNDKLHQVTVSLSGSLQHVEILRADGNLVRDIRPLVRLSISVVAAEGNRRENGFYGCGGRQAFSQFISEENWKKAADEALRMALINLEAEAAPAGTFDVVLANGWPGVMLHEAVGHGLEGDFNRKKTSAFSGLLGQQVAAKGVTVVDDGTIPKCRGSLTIDDEGTPSGYNILIENGKLVGFMQDRLNARLMGVNPTGNGRRESYAYAPMPRMTNTIMLGGDKTPEEILSSLKSGIYAVSFGGGQVDITSGKFVFECTEAYRVENGKIVAPIKGATLIGNGPEAMKRITMIGNDSKLDNGIGTCGKAGQSVPVGVGQPHLRINNMTIGGTELT | not soluble |
| MIKMGRSEMKIASAELRELMKAVSEGHYETVNTILDKDPELVNQYAPPTYDSPLARVLNKKHIDYKMLDILVKHHVDFDYPINYHKETPIELACKNQDLQLFKYLVQHNAPISEQAPHFLLVNSTNIKYLTEDKIKNTCEIIKLMGGLEAVSSKCDAEGNRFGEQARKSQLINRFGGIVKYDYMQLLQSVYPIVDREVDAPTIHGSTEVLTNLLNKIRGQFSSKETYDQQNLKDSISLFFMTGGEIPPSRKVPESRFEEAGIDTPKNAL | not soluble |
| MGSDKIHHHHHHMGIVGLPNAGKSSFFNFLTDNSVPAESFPFCTIEPNVGILVVPDERIEILAKNEGSKKVVHPFVEVVDIAGLVKGASKGEGLGNQFLDHISKVDVIAHVVRLFEDGRVSHPYQNVDPKRDIEIVETELILKDLETVQKRLEKRMKVARTGDKEAKREVELLQNLREFLSQGKKASKFPRHDRFEEEVIESLFLLTDKPQILVFNVDELDEEKRKLIEEIVKEKDEEYIIINVKLEEELKFLPEEEAEVFRREYNLFGDKRKEFFEKVLKLLNLIRFLTATQNEARSWTIKKGSTAYEAAGLIHSDIQKGFIKVEVIPFERYVEFGSLKKAREAGAVETHGKDYIVREGDVIHFLFRA | not soluble |
| VAIRNFDISKISGEWYSIFLASDVKEKIEENGSMRVFVDVIRALDNSSLYAEYQTKVNGECTEFPMVFDKTEEDGVYSLNYDGYNVFRISEFENDEHIILYLVNFDKDRPFQLFEFYAREPDVSPEIKEEFVKIVQKRGIVKENIIDLTKIDRCFQLRG | soluble |
| MGSDKIHHHHHHGAGVSTGSKLPDFRGKQGVWTLQAEGKHAEGVDFQVARPGVSHKSILALHKAGYIKTIITQNVDGLDRKVGIPVEDLIEVHGNLFLEVCQSCFSEYVREEIVMSVGLCPTGRNCEGNKRTGRSCRGKLRDATLDWDTEISLNHLDRIRKAWKQTSHLLCIGTSLEIIPMGSLPLDAKSKGIKTTTINYQETAHEKIVETAIHADVKLILYSLCNALGVNVDLGDDLPDEVPIPLKIS | not soluble |

Source: the DeepSol protein solubility set
